This passage reports stoichiometry N results from paper PMC6413200.

The experiment deals with pGE-LysRS-6xhis-SPARC fusion protein (not stated | Clonorchis sinensis). In words: SEC; Ni-affinity fractions on a Superdex 200 Increase 10/300 GL or a Superose 6 Increase 10/300 column; 50 mM Tris-Cl (pH 7.5), 300 mM NaCl; 0.3 mL/min; molecular weight estimated from elution; samples from sonication and from mild lysis.

The term stoichiometry N denotes the number of molecules, sites or subunits per partner or assembly. With pGE-LysRS-6xhis-SPARC fusion protein, the stoichiometry N was 2.
